Measurements taken from the nanobody polyreactivity screen of Harvey et al. (2022).

Assay: yeast display, Sf9 membrane polyspecificity reagent, FACS + sequencing; frameworks hold sequencing errors
Procedure, shortened: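 Nanobodies from a synthetic yeast display library (Saccharomyces cerevisiae BJ5465), induced 36–48 hours with galactose, were stained 1 hour at 4 °C with 10% biotinylated, detergent-solubilized Sf9 membrane reagent, enriched on streptavidin microbeads, then FACS-sorted. Anti-HA (expression) and streptavidin (reagent binding) fluorescence set low and high (top ~1%) gates. Polyreactivity labels come from the gate of origin. Genes were colony-PCR amplified, MiSeq 2 × 250 sequenced and filtered by CDR length.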

Sequence | polyreactivity (PSR sort gate)
QVQLVESGGGLVQAGGSLRLSCAASGFIFATYDMGWYRQAPGKERELVAAIDSDGSTNYADSVKGRYTISRDNAKNTVYLQMNSLKPEDTEVYYCAADRFQWGFWWLEYWGQGTQVTVSS | high polyreactivity
QVQLVESGGGLVQAGGSLRLSCAASGSTFYAYTMGWYRQAPGKERELVARISGRGGSTYYADSVKGRFTISRDIAKNTVYLQMNSLKPEDTAVYYCAARVYGTYRGIQYGYWGQGTQVTVSS | high polyreactivity
QVQLVESGGGLVQAGGSLRLSCAATGIILGPYAMGWYRPAPGKERELVAAISWRGGSTYNADSVKGRFTISRDNAKNTVYLQMNSLKPEDTAVYYCATASRTSRTGWAGYYCGQGTQVTVSS | high polyreactivity
QLQLVESGGGLVQAGGSLRLSCAASGFTFYAYAMGWYRQAPGKERELVAAINSGGGSRTYYADSVKGRFTISRDNAKNTVYLQMNCLKPEDTAVYYCAARVYGVDGYGYWGQGTEVTVSS | high polyreactivity
QVQVVESGGGLVQAGGSLRLSCAASGSTCYFNAMGWYRQAPGTERELVAAIEWSGGSTYYADSVKGRFTISRDNAKNTVYLQMTSLKPEDTAVYYCNRRDVIFLTGPPQYIFPTYDYWGQGTQVTVSS | low polyreactivity
QVQLVESGGGLVQAGGSLRLSCAASGSIFYYYAMGWYRQAPGKERELVAAITSRAGDTYYADSVKGRFTISRDNAKNTVYLQMNSLKPEDTAVYYCAADFPAYYDYYYWGQGTQVTVSS | low polyreactivity
QVQLVESGGGLVQAGGSLRLSCAASGIIFSVYAMGWYRQAPGTERELVAAISGSGGSTYYADSVKGRFTISRDNAKNTVYLQMNSLKPEDTAVYYCAARKKWSIRSDYWGQGTQVTVSS | high polyreactivity
QVQLVESGGGLVQAGGSLRLSCAASGLTFGHYDMGWYRQAPGKERELVAAITWSGGSTYYADSVKGRFTISRDNAKNTVYLQMNSLKPEDTAVYYCNADQPILYYSYRGVGYDYWGQGTQVTVSS | high polyreactivity
QVQLVESGGGLVQAVVSLRLSCADTGFTFRRYAMGWDRQAPGKERELVAVITTAGSTNYADSVKGRFTISRDNAKNTVYLKMNSLKPEDTAVYYCATDNGTRKRRYDYWGQGTQVTVSS | low polyreactivity
QVQLVESVVGLVQAVGTLRLSSAATGSTIYRNAMGWYRQPPGKEREFVAAISFRGGGTYADSVKGRFTISRDNAKNTVYLQMNSLKPEDTAVYYCAADHLSYRRRYEYWGQGTQVTVSS | low polyreactivity
QVQLVESGGGLVQAGGSLRLSCAASGSIFRVYAMGWYRQAPGKERELVATISGSAGRTYYADSVKGRFTISRDNAKNTVYLQMNSLKPEDTAVYYCAARWYKEYYWGQGTQVTVSS | high polyreactivity
QVQLVESGGGLVQAGGSLRLSCAASGSIFIQYDMGWYRQAPGKERELVATIRSCDSTTYADSVKGRFTISRDNAKNTVFLQVNSLKPEDTAVYYCAKDYRFDYDYDYWGQGTQVTVSS | low polyreactivity
QVQLVESGGGLVQAGGSLRLSCAPSGSTFYSYVMGWYRQATGKERELVAVISNDGSTNYADSVKGRFTISRDNAKNTVYLQMNSLKPEDTAVYYCAALKFVRAYRYYYWGQGTQVTVSS | low polyreactivity
QVQLVESGGGLVQAGGSLRLSCAASGRTFIGYAMGWYRQAPGKERELVATISVSGGSTYYADSVKGRFTISRDNAKNTVYLQMNSLTPVDTAVYYCADDPRYLQSWRGEFAGESWGQGTQVTVAS | low polyreactivity
QVQLVESGGGLVQAGGSLRLSCAASGFTFRVYAMGWYRQAPGKERELVAAITSGSSTTYADSVKGRFTISRDNAKNTVYLQLNSLKPEDTAVYYCNARRRGRVTGSYGYWGQGTQVTVSS | high polyreactivity
QVQLVESGGGLVHAGGSLRLSCAASGSTFHTYDMGWYRKAPWKERELVAAITSRDSTHYADSVKGCFTISRDNAKNTVYLQMNSLKPEDTAVYYCAASAPYLYYRSAYYYWGQGTQVTVSS | low polyreactivity

Sequence | polyreactivity (PSR sort gate)
QVQLVESGGGLVQAGGSLRLSCAASGLTFGYYAMGWYRQAPGKVRELVAAISRGSSTYYADSVKGRFTISRDNAKNTVYLQMNSLIPEDTAVYYCNALFSYGYWRVRYIVTQYDYWGQGTQVTVSS | high polyreactivity
QVQLLESGGGLVQAGGSRRLSCAASGSTFYGYAMGWYRQAPGKEREFVAAITTSGGSTYYADSVKGRFTISRDNAKNTVYLQMNSLKPEDTAVYYCAADAPSWYDRQYDYWGQGTQVTVSS | low polyreactivity
QFQLEESGGGLVQAGGSLRLSCAASGSTFGDYAMGWYRQAPGKERVLVAAINFSDGSTYYADSVKGRFTISRDNAKNTVYLQMNSLKPEDSAVYYCAKQGYLVWSGWRWYDYWGQGTQGTVSS | low polyreactivity
QDQLVESGGGLVQAVGSLRLSCAASGSTFGLYAMGWYRQAPGKERELVAAITIRGGSTYYADSVKGRFTISRDNAKKTVYLQMNSLKPEDTAVYYCAADYWYGCFEYWGQGTQVTVSS | low polyreactivity
QVQLVESGGGLVQAGGSLRLSCAPSGSIFNRNVMGWYRQAPGKERELVAAITRGGRTSYADSVKGRFTISRDNAKNTVYLQMNSLKPEDTAVYYCAARRGYWVVYWGQGTQVTVSS | high polyreactivity
QVQLVESGGGLVQAGVSLRLSCAASGGTFRPYAMGWYRQERGKERELVAAISYTGSTYYADSVKWRFTISRDNAKNTVYLQMNSLKPEDTGVYYCAKDFWYPPRFDYWGQGTQVTVSS | low polyreactivity
QVQLVESGGGLDQAGGSLRLSCASSGRIFRYNARGWYRQAPGKERELVAAITSGTGTNYADSVKGRFTISRDNAKNTVYLQMNRLTPEETAVYYCAVDYGYWRDSMGLGVFDYWGQGTQVTVSS | low polyreactivity
QVQLVESGGGLVQAGGSLRLSCAASGRIFSGYAMGWYRQAPGKERELVATITSGGGTYYADSVKGRFTISRDNAKNTVYLQMNSLKPEDTAVYYCNAEKKGSFRKYNYWGQGTQVTVSS | low polyreactivity
QVQLVESGGGFVQAGGSLRLTCAASGRTFAKNTMGWYRQAPGKERELVAAITWRGGTTYYADSVKGRVTISRDNAKNTVYLQMNSLKPEDTAVYYCAKDRYYGYFRSRSDYWGQGTQVTVSS | high polyreactivity
QVHLVESGGGLVQAGGSLRLSCAASGRTFYSYVMGWYRQAPGKERELVAAISSTGGTYADSVKGRFTISRDNAKNTVYLQINSLKPEETAVYYCAAATPTGYKRGGYWGQGTQVTVSS | low polyreactivity
QVQLVESGGGLVQAGGSLRLSCAASGRIFFRNAMGWYRQAPGKERELVAAISKSGTRTYYADSVKGRFTISRDNAKNTVYLQMHSLKPEDTAVYYCNALLRDCGTYAGDDYWGQGTQVTVSS | high polyreactivity
QVQLVESGGGLVQAGGSLRLSCDASGNIFGLNAMGWYRQAPGKERELVSAISSGGSTNYADSVKGRFTISRDNAKNTVYLQMNSLKPEDTAVYYCAVQGSRYSYCYGYRFRTMDYWGQVTQVTVSS | high polyreactivity
QVQLVETGGGLVQAGGSLRLSCAASVFTFPTYTMGWYRQAPGKEREFVARITKRGGSTYYADSVKGRFTISRVNVKNTVYLQRKCVKPEDTAVYYCDAGFWWSSYGYWGQGSQVTVSS | high polyreactivity
QVQLVESGGGLVQAGGSLRLSCAASGSILQPIYAMGWYRQAPGKERELVAAISASGGSTYYADSVKGRFTISRDNAKNTVYLQMNSLKPEDTAVYYCNKVGYYASVLGYDYWGQGTQVTVSS | high polyreactivity
QVQLVESGGGLVQAGGSLRLSCAASGRIFYYYAMGWYRQAPGKERELVAAITRGGGTYYADSVKGRFTISRDNAKNTVYLQMNSLKPEDTAVYYCAKRGPPESHHPYRYRFDYWGQGTQVTVSS | low polyreactivity
